A protein production outcome set (Wang et al. 2014)

Assay: label from the status in PepcDB records

Sequence | protein production
MKFKTRDLVLIPLFTAMTIIGAFIKIPVGVVPINLQFLFTALSGVLLGGALGAVSQILYVALGLIGLPVFTSGGGLSYIFTPTFGYLIGYILAAFIIGKITHSRKPKFTTIFFSCILGLIAVYFIGTTYLYIILNYVAGKNVSIIASIKLGVLMFIPGDIVKCIITALLGSRILPILNKTSLNN | failed
MKLVFVTVNYNNIDETRKVLNCFSGLSHGENSVLYVVDNSDSKSECQSLDKENTNNKIKFLYPKENLGYLTGASFGVDFHYNNHGFDFDYLIILNNDIIFNVNEVLKSLEIFSQNNDAMMISPLVIDRGVNVNPYLTVRKSKRYMMFWNFILSNFFTFKVFHKINKYRALLSSKNNFSSTVQPFQKIYGSHGSVFILKNEYFLRGGSLRRLPFLYGEEIYIAEQVRKLGGDCVYYPSIKFEHKGSATLGNDTSRFKYLCIKQGHSFLYREFYS | failed
MGIYQWRDKKKPSGGKRRYYYKVKRKYAAGRPPTYTTLSAAEEEERKPVRARGGSYKIKAKKVAFAVVSNPKTGEARKARILRIVETPAHREYARRGIIVKGAVIDTTLGRAVVTSRPGQEGVVNAVLLEEQGQKQLEHHHHHH | not failed
MVMPESHIHNIPMEQCVLVALMTFALSYELIAQDLDEGCFYPERHKQIYNAIVELANENQPYDVVMVEQRLKSKNLLHVLGGEQYLKIMLAEAPSSFHSMEPYITQLKKLKAHRQVEWLGQRISSMAQDTTQPDVFAEAENILGQVDNQEQSDQGMSFEAALDMALTEMIEKAEAKDKQQFTGVKFNLKHLDELLGTVQKGHFCVVGGRPGSGKSTLAQMLALDTASSFGKGVLFISAEMDQSTLANRMISALGLIPYHNIHNAELYNGLMKDYADAKAAYQRLPIWIQPKQKPSLSEVRSYARRAKRRYKELGCIIVDYLQLLRDPSKKDRFQEVSSISRELKSMAKEFECPVIALVQLNREAEKGKRPKASDIKESGQIEQDADQIILVNPLTDPEDSTKPMGITELIVVKNRHGKRGAVRVLDYLETCRFRSVEEQAEP | failed
MVSANTKPLSEFKTGEFVQIEKIQLEGTMKRRLLDLGFIPGATIKVLQRSPLGDPVAYQVSNTTIALRKEESSLIFGVLIGDDFRLEHHHHHH | not failed
MSNPLGELVKALEKLSFKPSDVRIYSLLLERGGMRVSEIARELDLSARFVRDRLKVLLKRGFVRREIVEKGWVGYIYSAEKPEKVLKEFKSSILGEIERIEKMFTD | not failed
MEKAILITFLIATTSMVYQTIGQEEEISPISPESLAYEPAAAYEYDHELLSHMTTRRIKFLQDCSDKMSSKCNVEMTEGLIDDKPVSEDCCVNFLKIGRECHEGLMTFVFATYELKDVASAILPRSKRMWNKCVETTAAKIGAPLAFET | failed
MILTSTEGQEGLPRYFPQVMKMLARMQAGRLDIALPDGRVFRSEGPEPGPVARVDIHDTDVFARLIREGELGFSDAYLEQDWSTPDLRAFMDLVHQGEETVYDGFTGQFLARAYERLRFWLQRNHRKQAKKNISYHYDLGNDFYALWLDETMTYSSALFETGQESLEKAQEAKYASLLDEMGAQPGDHILEIGCGWGGFAEYAARQRGMRVTGLTISQEQFKFARERIEKAGLSDQVHFKLQDYRDETGSYDGIASIEMFEAVGEKYWPVYFDTVRARLKPGKRATLQIITVADRRWEIYRNGVDFIQKYIFPGGMLPAPGILREQVARAGLEFVQSREFGKSYDLTLRRWYETFNDKWDQVAELGFDDRFRRMWNFYLTSCGAAFDTGTCDVTQMTVARPNHS | failed
MRVVVISSFVSVSLQLSFLLLLASAIRSSSSPPNDPFLGISPQDEKYYKSSSEIKCKDGSKKFTKAQLNDDFCDCSDGTDEPGTSACPTGKFYCRNAGHSPVILFSSRVNDGICDCCDGSDEYDGHVSCQNTCWEAGKAARENLKKKIETYNQGLVIRRQEIEQAKVGLEKDAAELKKLKSEQKILKGLVDQLKDRKEQIEKVEEKERLQKEKEEKEKKEAELAAQQGKGDAEEKTDDSEKVEESSHDEGTPAVSQHDETTHHDEIGNYKDYPSDEEPAAEGEPTSILDEATHTNPADEHVVERKEESTSSEDSSSPTDESQNDGSAEKEESDEVKKVEDFVTEKKEELSKEELGRLVASRWTGEKSDKPTEADDIPKADDQENHEHTPITAHEADEDDGFVSDGDEDTSDDGKYSDHEPEDDSYEEEYRHDSSSSYKSDADDDVDFSETTSNPTWLEKIQKTVKNILLAVNLFQTTPVDKSEADRVRKEYDESSSKLNKIQSRISSLEKKLKQDFGPEKEFYSFHGRCFESKQGKYTYKVCAYKEATQEEGYSKTRLGEWDKFENSYQFMSYTNGEKCWNGPDRSLKVKLRCGLKNELMDVDEPSRCEYAAILSTPARCLEDKLKELQQKLEKLMNQDKPQNHDEL | failed
MNVRNNTKLITINALLLAIGVILHQITPILGLPMQPDFALTMLFIIIILNDNFKITMVSGTLMGIFTAMTTKFPGGQLPNVVDKIFTALIVFLFIALIKKSNILGRLSVEKRNNILIAIVLPLGTLVSGILFLGTAKIIVGLPASFSILFLTVVVPSIALNTVIGLVLYRIVEKSLRRASYSIRG | failed
MQVRAVFFARLRREVGLEELTLDVPDGADVRAVAEHLEQERGVSLRGCMVAVNETYASPEHLLREGDEVAFLPPVAGGAPEDEADADTHCRVTADPLSLSEADAFLVKPEYGAQAYFMGTVRSPNQGQVVEYIDYEAFAPMAEKVMREAAALARERHGELRVWIEHRTGRLTPAVASIVIGVASPHRRPALEACDFLIEHLKIELPIWKHEADGRGEHWVKGTTGHDTL | failed
MRNYIQGIDHVQVAAPVGCEEEARAFYGETIGMEEIPKPEELKKRGGCWFKCGNQEIHIGVEQNFNPAKRAHPAFYVLKIDEFKQELIKQGIEVIDDHARPDVIRFYVSDPFGNRIEFMENKN | not failed
MVVNKRLILILLFILNTAKSDELSWKGNDFTLYARQMPLAEVLHLLSENYDTAITISPLITATFSGKIPPGPPVDILNNLAAQYDLLTWFDGSMLYVYPASLLKHQVITFNILSTGRFIHYLRSQNILSSPGCEVKEITGTKAVEVSGVPSCLTRISQLASVLDNALIKRKDSAVSVSIYTLKYATAMDTQYQYRDQSVVVPGVVSVLREMSKTSVPASSTTNGSPATQALPMFAADPRQNAVIVRDYAANMAGYRKLITELDQRQQMIEISVKIIDVNAGDINQLGIDWGTAVSLGGKKIAFNTGLNDGGASGFSTVISDTSNFMVRLNALEKSSQAYVLSQPSVVTLNNIQAVLDKNITFYTKLQGEKVAKLESITTGSLLRVTPRLLNDNGTQKIMLNLNIQDGQQSDTQSETDPLPEVQNSEIASQATLLAGQSLLLGGFKQGKQIHSQNKIPLLGDIPVVGHLFRNDTTQVHSVIRLFLIKASVVNNGISHG | failed
MATHNIHMDCAVNPSVRWRSRPVSTQVPRTRRFAAVVGPIAFSTLGIVLSLFAAVAVDAQPRTPGRVAAVFPPWWDDARVVASAGTAGDIAGAGGASFIVILRGDPATLNQRARTAGAWLLLDPALAGACARPASEPVSS | failed
MNVAILLAAGKGERMSENVPKQFLEIEGRMLFEYPLSTFLKSEAIDGVVIVTRREWFEVVEKRVFHEKVLGIVEGGDTRSQSVRSALEFLEKFSPSYVLVHDSARPFLRKKHVSEVLRRARETGAATLALKNSDALVRVENDRIEYIPRKGVYRILTPQAFSYEILKKAHENGGEWADDTEPVQKLGVKIALVEGDPLCFKVTFKEDLELARIIAREWERIP | not failed
KPREEKRTALSKVVIRRLPPGLTKEQLEEQLRPLPAHDYFEFFAADLSLYPHLYSRAYINFRNPDDILLFRDRFDGYIFLDSKGLEYPAVVEFAPFQ | failed
MFSLSTQTMSAVAQRHPQTPISTITASNRQSSLHFKINSNNPEAHAQMRSGDEKGAIASITIEFQSVEQLHLHLGIMHLLSGDMKGAIEDFNQAILINPNYAEAYKGRGVAKVQLGDEKEAIEDLQKAADIFQEQEETAKYQEVINIIRQINDK | failed
MKYTVYLFDFDYTLADSSRGIVTCFRSVLERHGYTGITDDMIKRTIGKTLEESFSILTGITDADQLESFRQEYSKEADIYMNANTILFPDTLPTLTHLKKQGIRIGIISTKYRFRILSFLRNHMPDDWFDIIIGGEDVTHHKPDPEGLLLAIDRLKACPEEVLYIGDSTVDAGTAAAAGVSFTGVTSGMTTAQEFQAYPYDRIISTLGQLISVPEDKSGCPL | not failed
MPLKSLKNRLNQHFDLSPRYGSVKKIMPNIVYADGFNPSVGDVVKIEKSDGSECVGMVVVAEKEQFGFTPFNFIEGARAGDKVLFLKEGLNFPVGRNLLGRVLNPLGQVIDNKGALDYERLAPVITTPIAPLKRGLIDEIFSVGVKSIDGLLTCGKGQKLGIFAGSGVGKSTLMGMITRGCLAPIKVIALIGERGREIPEFIEKNLKGDLSSCVLVVATSDDSPLMRKYGAFCAMSVAEYFKNQGLDVLFIMDSVTRFAMAQREIGLALGEPPTSKGYPPSALSLLPQLMERAGKEENKGSITAFFSVLVEGDDLSDPIADQTRSILDGHIVLSRELTDYGIYPPINILNSASRVAKDIISESQNLCARKFRRLYALLKENEMLIRIGSYQMGNDKELDEAIKKKALMEQFLAQDENALQPFETSFQQLEEILR | failed
MAPQKPVSAAQTAQHSAVWIDVRSEQEFSEGHLHNAVNIPVDQIVRRIYEAAPDKDTPVNLYCRSGRRAEAALQELKKAGYTNVANHGGYEDLLKKGLEHHHHHH | not failed
SNMQLDTLRRIVQEINSSVSLHDSLDIMVNQVADAMKVDVCSIYLLDERNQRYLLMASKGLNPESVGHVSLQLSEGLVGLVGQREEIVNLENASKHERFAYLPETGEEIYNSFLGVPVMYRRKVMGVLVVQNKQPQDFSEAAESFLVTLCAQLSGVIAHAHAVGNIDVFRKPSNGA | not failed
EEGNSSELPLSAEDAKKLTELAENVLQGWDVQAEKIDVIQGNQMALVWKVHTDSGAVCLKRIHRPEKKALFSIFAQDYLAKKGMNVPGILPNKKGSLYSKHGSFLFVVYDWIEGRPFELTVKQDLEFIMKGLADFHTASVGYQPPNGVPIFTKLGRWPNHYTKRCKQMETWKLMAEAEKEDPFSQLYLQEIDGFIEDGLRIKDRLLQSTYVPWTEQLKKSPNLCHQDYGTGNTLLGENEQIWVIDLDTVSFDLPIRDLRKMIIPLLDTTGVWDDETFNVMLNAYESRAPLTEEQKQVMFIDMLFPYELYDVIREKYVRKSALPKEELESAFEYERIKANALRQLI | not failed
MRKVLSFSAFLIIGLLLSQYLPLLAGEGYATVKIVSNILLYICLSFIMINVGREFEVDKTRWRSYAGDYFIAMATAAMPWFLIAIYYVFVLLPPEFWNSWEAWKENLLLSRFAAPTSAGILFTMLAAIGLKSSWIYKKIQVLAIFDDLDTILLMIPLQIMMIGLRWQLIVVVFIVFLLLSLGWKQLGRYNWRQDWKAIMGYSVLVFVATQAVYYFSKQLYGEEGSIHIEVLLPAFVLGMIMKHKEIDTPVEHKVSTGVSFLFMFLVGMSMPHFIGVNFAETHAGTHSVTGSQEMMSWGMIALHVLIVSLLSNIGKLFPVFFYRDRKFSERLALSIGMFTRGEVGAGVIFIALGYNLGGPALVISVLTIVLNLILTGIFVLWVKKLALRSYTT | failed
RVKESITRTSRAPSVATVGSICDLNLKIPEINSSDMSAHVTSPSGRVTEAEIVPMGKNSHCVRFVPQEMGVHTVSVKYRGQHVTGSPFQFTVGPLGEGG | not failed
MKQKSLNPLSSSSPNYDEMIQENFKPHWIIGIDPNLSGALAVLKFDDKGSCFAQVYDTPQLEVVVQNIRTRSFNEKSMLELIRSLDVPSGTKAFVAKYIHPENAITAYNDGLGCGLWTLLTSSISVIYVTPSTWDKHFNLSIWSLDGGRKLALEMFPSLKLTTKIDDNARANALLIAAYGHATSDTRYYSFSQIK | failed
ADVSATVSDMGSLLTAVTLAGVLDYYSVGTKVIKAPKKMVEQQILMTLQTMASLVESSGVDGLVKALNPELLSKAASSMHLLDQQKDLDAALEILTHL | not failed
